According to publication PMC7826336:

Assays:
prekallikrein (PK) = test: SPR; Pioneer biosensor, COOHV chip; PMSF-treated PK (FC-1) or PKa (FC-3) immobilised by amine coupling; analytes diluted to 250 nM, OneStep gradient injection, 30 uL/min, dissociation 600 s; 22 °C; 10 mM Hepes, 140 mM NaCl, 1.5 mM CaCl2, 40 uM ZnCl2 pH 7.4; simple ka/kd 1 or 2 binding site model
kallikrein (PKa) = kallikrein (PKa) (UniProt P03952); test: as above
Chain of kallikrein (PKa) (P03952 20-390, chain 1 of 2): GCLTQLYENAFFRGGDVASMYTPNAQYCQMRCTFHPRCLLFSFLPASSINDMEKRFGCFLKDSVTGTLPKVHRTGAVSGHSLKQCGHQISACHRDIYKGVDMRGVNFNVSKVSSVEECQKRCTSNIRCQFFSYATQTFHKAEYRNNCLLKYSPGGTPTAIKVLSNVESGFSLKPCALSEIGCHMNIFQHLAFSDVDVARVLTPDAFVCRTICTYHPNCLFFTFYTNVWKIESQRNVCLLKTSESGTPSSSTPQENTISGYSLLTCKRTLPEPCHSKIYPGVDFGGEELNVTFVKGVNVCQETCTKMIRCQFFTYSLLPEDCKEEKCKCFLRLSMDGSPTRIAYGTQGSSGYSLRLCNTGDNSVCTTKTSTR
Chain of kallikrein (PKa) (P03952 391-638, chain 2 of 2): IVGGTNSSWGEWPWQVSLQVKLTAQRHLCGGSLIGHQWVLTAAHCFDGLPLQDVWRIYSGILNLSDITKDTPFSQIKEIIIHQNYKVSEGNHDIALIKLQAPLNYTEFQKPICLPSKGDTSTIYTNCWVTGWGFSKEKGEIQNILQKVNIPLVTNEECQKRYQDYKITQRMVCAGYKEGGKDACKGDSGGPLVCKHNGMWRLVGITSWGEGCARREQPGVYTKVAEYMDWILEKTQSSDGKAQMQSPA

Substance	Kd (prekallikrein (PK))	koff (prekallikrein (PK))	kon (prekallikrein (PK))	Kd (kallikrein (PKa))	koff (kallikrein (PKa))	kon (kallikrein (PKa))
Factor IX (FIX) (from UniProt P00740 47-461) (natural protein)	2.17 nM	0.000239 s⁻¹	110000 M⁻¹ s⁻¹			
activated Factor IX (FIXa) (from UniProt P00740 47-191; P00740 227-461) (enzyme)	0.492 nM	6.45e-05 s⁻¹	131000 M⁻¹ s⁻¹			
high molecular weight kininogen (HK) (natural protein)	0.245 nM	3.73e-05 s⁻¹	152000 M⁻¹ s⁻¹	0.272 nM	2.82e-05 s⁻¹	104000 M⁻¹ s⁻¹
